Data from the supplement of paper PMC12764529.
± gives the half width of the 95% confidence interval.

assay: folding stability dG unfold (combined trypsin and chymotrypsin); higher = more stable
Procedure, shortened: (§1)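 K50 was inferred by Bayesian fitting of sequencing counts obtained after protease digestion of designed mini-proteins. Unfolding free energy was derived by comparison with a sequence-predicted unfolded-state K50 and a shared folded-state K50, for each protease or both combined. The mini-proteins were under 80 residues, had no cysteine, were carried in a PA-tagged cDNA display construct, and were kept only if AlphaFold2 dimer inter-PAE exceeded 15.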

Row | Sequence | folding stability dG unfold
1 | SAGGSAGGSMVEEFLASLPPDATVTVDPSTGVVTVSLPAEGRTLTLTVDTATGTVTETERRPESAGGSAGGS [r12_82_JUSTAS] | 1.71 ± 0.027 kcal/mol
2 | SKPIPVKITIETKTNPNGEPITTITIDKGDKTYSLPLGNAKILEIDPEKQYIIIYNPETGSILILKPSDLSA [r9_1186_TrMRF] | 2.95 ± 0.058 kcal/mol
3 | SAGGSIPPGARVETLEVVTSSSSDGTVTTTTLTRVTSPEDSVSERTRTTTDPVVPPPATPTNPVSLASAGGS [r8_90_JUSTAS] | 0.507 ± 0.053 kcal/mol
4 | SAGGMLLVRIRVKLSPEQIKALEEAGFEVVEERDGEVVVRLEVSPEQLEKLKALFPDAEIEVVELPPESAGG [r13_261_TrROS_Hall] | 5.26 ± 0.29 kcal/mol
5 | SAGGSAGGSPELKISFPGFEGAEVELDPETNIATVRVKLPDKELELKVRIDDDGITIVEVREVSAGGSAGGS [r20_60_TrMRF] | 1.94 ± 0.14 kcal/mol
6 | SAGGSAGGSNLPAGQEIWFPIEIRIEMEMPVRDNGEPIWRMRMTMEHTIMLSIKVKPASPEDASAGGSAGGS [r20_14_TrROS] | 4.88 ± 0.43 kcal/mol
7 | SAGGSAGGSDPTPVVVEFPFSSEEEAEKKAKEAAEKLKAEGVDIKEVKIEYDPEKGTVTLTLGSAGGSAGGS [r20_155_JUSTAS] | 1.21 ± 0.11 kcal/mol
8 | SAGGSAGGSAGGGMSVKVTVKDPVNGTTSVYELSVPPGVSNVVINVKTPDNSTVTKVTLESAGGSAGGSAGG [r7_687_JUSTAS] | 1.11 ± 0.11 kcal/mol
9 | SAGGSAGGSAGMITIERIPGSGKLVITITDPGSGKVLTIPFDNADPKEALAKAKELLKKLSAGGSAGGSAGG [r17_386_JUSTAS] | 3.25 ± 0.075 kcal/mol
10 | SAGGSAGGSAGGEEEYVTLTIKVYDPKTREPVKEITIVLPKKNMTPEQLRELLKELGIEVSAGGSAGGSAGG [r7_903_TrROS_Hall] | 2.98 ± 0.23 kcal/mol
11 | SAGGSASTYEPEVYTFTGKNKKIKVIVVKPKDNPTAKIIVYDENGNVLATIEFPAENVEKALKELASAGGSA [r15_940_TrMRF] | 2.1 ± 0.083 kcal/mol
12 | SMKDATSTSIGSRTYTYPNTDPSVSPEELKEKVIEEIKKEPELKAVEITVEVDPSTGTVTITINLTKLVKSA [r9_1001_JUSTAS] | 1.5 ± 0.077 kcal/mol
13 | SYKIHIMRPNGEMEEIPIKHPDGWKINIHRGPNKPFYIMVERYDPDGGPKPKPVIPIDSPEQALDKLKDASA [r9_942_TrROS] | 0.0153 ± 0.2 kcal/mol
14 | STLEELLEAIEKLPPGAVVRITITLENGEKIELPIEMTVEELKEQLEALAAEHPGKKIEIKIEVIPKEELSA [r9_37_TrROS_Hall] | 3.43 ± 0.56 kcal/mol
15 | SAGKPKPEETVTLVLEVPKENPIKVEELFEKLPDVKFVEVKVEPLPDDRVLITITVLPEDVEKIKKALGSAG [r5_554_TrMRF] | 2.76 ± 0.13 kcal/mol
16 | SAGMNLDNMKIKEIKLQVNPDGSVEVPFEFRFPNGKPMKVSMRVNNGMIEIYYPNGWPITIDIPPGAFSAGG [r19_84_TrROS] | 1.36 ± 0.15 kcal/mol
17 | SAGGSAGGMPLLALSYPVLKDGKLYRVLFLYSPDGTFLGPFYVSADLTEDIPPDTVVLVHPDALSAGGSAGG [r6_33_TrMRF] | 3.55 ± 0.1 kcal/mol

assay: folding stability dG unfold from trypsin proteolysis; higher = more stable
Procedure, shortened: as §1

Row | Sequence | folding stability dG unfold
18 | SAGGSAGGSMVEEFLASLPPDATVTVDPSTGVVTVSLPAEGRTLTLTVDTATGTVTETERRPESAGGSAGGS [r12_82_JUSTAS] | 1.56 ± 0.028 kcal/mol
19 | SKPIPVKITIETKTNPNGEPITTITIDKGDKTYSLPLGNAKILEIDPEKQYIIIYNPETGSILILKPSDLSA [r9_1186_TrMRF] | 2.54 ± 0.059 kcal/mol
20 | SAGGSIPPGARVETLEVVTSSSSDGTVTTTTLTRVTSPEDSVSERTRTTTDPVVPPPATPTNPVSLASAGGS [r8_90_JUSTAS] | -0.0164 ± 0.079 kcal/mol
21 | SAGGMLLVRIRVKLSPEQIKALEEAGFEVVEERDGEVVVRLEVSPEQLEKLKALFPDAEIEVVELPPESAGG [r13_261_TrROS_Hall] | 5.44 ± 0.49 kcal/mol
22 | SAGGSAGGSPELKISFPGFEGAEVELDPETNIATVRVKLPDKELELKVRIDDDGITIVEVREVSAGGSAGGS [r20_60_TrMRF] | 1.95 ± 0.07 kcal/mol
23 | SAGGSAGGSNLPAGQEIWFPIEIRIEMEMPVRDNGEPIWRMRMTMEHTIMLSIKVKPASPEDASAGGSAGGS [r20_14_TrROS] | 3.75 ± 0.31 kcal/mol
24 | SAGGSAGGSDPTPVVVEFPFSSEEEAEKKAKEAAEKLKAEGVDIKEVKIEYDPEKGTVTLTLGSAGGSAGGS [r20_155_JUSTAS] | 1.36 ± 0.043 kcal/mol
25 | SAGGSAGGSAGGGMSVKVTVKDPVNGTTSVYELSVPPGVSNVVINVKTPDNSTVTKVTLESAGGSAGGSAGG [r7_687_JUSTAS] | 0.754 ± 0.09 kcal/mol
26 | SAGGSAGGSAGMITIERIPGSGKLVITITDPGSGKVLTIPFDNADPKEALAKAKELLKKLSAGGSAGGSAGG [r17_386_JUSTAS] | 3.25 ± 0.071 kcal/mol
27 | SAGGSAGGSAGGEEEYVTLTIKVYDPKTREPVKEITIVLPKKNMTPEQLRELLKELGIEVSAGGSAGGSAGG [r7_903_TrROS_Hall] | 2.87 ± 0.12 kcal/mol
28 | SAGGSASTYEPEVYTFTGKNKKIKVIVVKPKDNPTAKIIVYDENGNVLATIEFPAENVEKALKELASAGGSA [r15_940_TrMRF] | 2.02 ± 0.029 kcal/mol
29 | SMKDATSTSIGSRTYTYPNTDPSVSPEELKEKVIEEIKKEPELKAVEITVEVDPSTGTVTITINLTKLVKSA [r9_1001_JUSTAS] | 1.14 ± 0.021 kcal/mol
30 | SYKIHIMRPNGEMEEIPIKHPDGWKINIHRGPNKPFYIMVERYDPDGGPKPKPVIPIDSPEQALDKLKDASA [r9_942_TrROS] | -0.123 ± 0.18 kcal/mol
31 | STLEELLEAIEKLPPGAVVRITITLENGEKIELPIEMTVEELKEQLEALAAEHPGKKIEIKIEVIPKEELSA [r9_37_TrROS_Hall] | 3.66 ± 0.38 kcal/mol
32 | SAGKPKPEETVTLVLEVPKENPIKVEELFEKLPDVKFVEVKVEPLPDDRVLITITVLPEDVEKIKKALGSAG [r5_554_TrMRF] | 3.58 ± 0.28 kcal/mol
33 | SAGMNLDNMKIKEIKLQVNPDGSVEVPFEFRFPNGKPMKVSMRVNNGMIEIYYPNGWPITIDIPPGAFSAGG [r19_84_TrROS] | 1.01 ± 0.15 kcal/mol
34 | SAGGSAGGMPLLALSYPVLKDGKLYRVLFLYSPDGTFLGPFYVSADLTEDIPPDTVVLVHPDALSAGGSAGG [r6_33_TrMRF] | 3.24 ± 0.09 kcal/mol

assay: folding stability dG unfold from chymotrypsin proteolysis; higher = more stable
Procedure, shortened: as §1

Row | Sequence | folding stability dG unfold
35 | SAGGSAGGSMVEEFLASLPPDATVTVDPSTGVVTVSLPAEGRTLTLTVDTATGTVTETERRPESAGGSAGGS [r12_82_JUSTAS] | 1.762 ± 0.0075 kcal/mol
36 | SKPIPVKITIETKTNPNGEPITTITIDKGDKTYSLPLGNAKILEIDPEKQYIIIYNPETGSILILKPSDLSA [r9_1186_TrMRF] | 3.14 ± 0.06 kcal/mol
37 | SAGGSIPPGARVETLEVVTSSSSDGTVTTTTLTRVTSPEDSVSERTRTTTDPVVPPPATPTNPVSLASAGGS [r8_90_JUSTAS] | 0.804 ± 0.06 kcal/mol
38 | SAGGMLLVRIRVKLSPEQIKALEEAGFEVVEERDGEVVVRLEVSPEQLEKLKALFPDAEIEVVELPPESAGG [r13_261_TrROS_Hall] | 4.96 ± 0.1 kcal/mol
39 | SAGGSAGGSPELKISFPGFEGAEVELDPETNIATVRVKLPDKELELKVRIDDDGITIVEVREVSAGGSAGGS [r20_60_TrMRF] | 1.86 ± 0.054 kcal/mol
40 | SAGGSAGGSNLPAGQEIWFPIEIRIEMEMPVRDNGEPIWRMRMTMEHTIMLSIKVKPASPEDASAGGSAGGS [r20_14_TrROS] | 5.11 ± 0.38 kcal/mol
41 | SAGGSAGGSDPTPVVVEFPFSSEEEAEKKAKEAAEKLKAEGVDIKEVKIEYDPEKGTVTLTLGSAGGSAGGS [r20_155_JUSTAS] | 1.07 ± 0.062 kcal/mol
42 | SAGGSAGGSAGGGMSVKVTVKDPVNGTTSVYELSVPPGVSNVVINVKTPDNSTVTKVTLESAGGSAGGSAGG [r7_687_JUSTAS] | 1.28 ± 0.034 kcal/mol
43 | SAGGSAGGSAGMITIERIPGSGKLVITITDPGSGKVLTIPFDNADPKEALAKAKELLKKLSAGGSAGGSAGG [r17_386_JUSTAS] | 3.19 ± 0.048 kcal/mol
44 | SAGGSAGGSAGGEEEYVTLTIKVYDPKTREPVKEITIVLPKKNMTPEQLRELLKELGIEVSAGGSAGGSAGG [r7_903_TrROS_Hall] | 3.01 ± 0.083 kcal/mol
45 | SAGGSASTYEPEVYTFTGKNKKIKVIVVKPKDNPTAKIIVYDENGNVLATIEFPAENVEKALKELASAGGSA [r15_940_TrMRF] | 2.12 ± 0.064 kcal/mol
46 | SMKDATSTSIGSRTYTYPNTDPSVSPEELKEKVIEEIKKEPELKAVEITVEVDPSTGTVTITINLTKLVKSA [r9_1001_JUSTAS] | 1.76 ± 0.054 kcal/mol
47 | SYKIHIMRPNGEMEEIPIKHPDGWKINIHRGPNKPFYIMVERYDPDGGPKPKPVIPIDSPEQALDKLKDASA [r9_942_TrROS] | -0.11 ± 0.3 kcal/mol
48 | STLEELLEAIEKLPPGAVVRITITLENGEKIELPIEMTVEELKEQLEALAAEHPGKKIEIKIEVIPKEELSA [r9_37_TrROS_Hall] | 2.78 ± 0.28 kcal/mol
49 | SAGKPKPEETVTLVLEVPKENPIKVEELFEKLPDVKFVEVKVEPLPDDRVLITITVLPEDVEKIKKALGSAG [r5_554_TrMRF] | 2.13 ± 0.069 kcal/mol
50 | SAGMNLDNMKIKEIKLQVNPDGSVEVPFEFRFPNGKPMKVSMRVNNGMIEIYYPNGWPITIDIPPGAFSAGG [r19_84_TrROS] | 1.48 ± 0.16 kcal/mol
51 | SAGGSAGGMPLLALSYPVLKDGKLYRVLFLYSPDGTFLGPFYVSADLTEDIPPDTVVLVHPDALSAGGSAGG [r6_33_TrMRF] | 3.523 ± 0.03 kcal/mol
